Laboratory results taken from patent publication US20080274114A1 (APPLIED MOLECULAR EVOLUTION, published 2008).

Tests used:
[1] = molecular target: T1, soluble EGFR (sEGFR), amino acids 1-619 of mature human EGFR with (Gly)4Ser linker and (His)6 tag (human, UniProt P00533 25-643, biotinylated with Sulfo-NHS-LC-Biotin in the filter lift and the capture ELISA); assay: capture filter lift and capture ELISA, biotinylated sEGFR
T1 construct: range 1-619; Expressed in CHO-K1 cells; also called biotinylated sEGFR; B-sEGFR
Description: Briefly, a filter is coated with a capture reagent (goat anti-human kappa chain antibody), then the coated filter is placed on a plate with phage plaques, from phage which are expressing Fabs. The filter is incubated with the plaques, then the filter is incubated with biotinylated sEGFR, and bound biotinylated sEGFR is detected by binding of Neutravidin-AP and incubation with the detectable alkaline phosphatase substrate.
The filter is submerged for 15 min. The filter is washed three times in PBS. The filter is blocked in 1% BSA in PBS for 1 hour. The filter is washed three times in PBS. The filter is air dried for 10 min. The filter is carefully laid onto phage plate and incubated overnight at 22° C. The filter is carefully lifted off and washed briefly in PBS. The filter is incubated with Biotinylated antigen at 1/1000 dilution into 3% dry milk, PBS, 0.05% Tween 20 for 1 hour at room temperature. The filter is vacuum washed with PBS, 0.05% Tween 20 three times. The filter is incubated with Neutravidin-AP 1/1000 in PBS, 0.05% Tween 20 for 30 min. at room temperature. The filter is vacuum washed with PBS, 0.05% Tween 20 three times. The filter is developed in 10 mls AP substrate (Nitro-blue tetrazolium, 5-Bromo-4-chloro-indolyl phosphate, Pierce, Rockford, Ill.). Plaques are selected based on blue color intensity.
Capture ELISA is used as an assay to detect Fabs which bind sEGFR as follows. […] The wells are washed 3 times with PBS-Tween 20 (0.05%). the wells are blocked with 50 μL/well 1% BSA in PBS-Tween for 1 hour at RT. The wells are washed 3 times with PBS-Tween. […] The plate is incubated at RT for 2 hours. The plate is wash 3 times with PBS-Tween. 50 μL/well biotinylated-sEGFR diluted 1/1000 in PBS-Tween are added and the plate is incubated at RT for 1 hour. The plate is washed 3 times with PBS-Tween.

[2] = molecular target: T1, soluble EGFR (sEGFR), amino acids 1-619 …; assay: KinExA, calculated as Kd x kon
Description: (§1) Binding affinity measurements for full-length monoclonal antibodies of the invention are determined using a Sapidyne KINEXA assay. NHS-activated fast-flow sepharose beads (GE Healthcare) are pre-coated with antigen (50 μg anti-EGFR antibody per ml of beads) and blocked with 10 mg/ml BSA in 1 M Tris-HCl, pH 8.0. […] To determine the free antibody present at equilibrium, each sample is passed through the sEGFR-coated beads. The amount of bead-bound antibody is then quantified by passing a solution of fluorescent (Cy5) labeled goat anti-human Fc antibody (Jackson Immuno Research) diluted 1:4000 in running buffer over the beads. The measured fluorescence signal is proportional to the concentration of free antibody at equilibrium. Each concentration of sEGFR is measured in duplicate. The equilibrium dissociation constant (KD) is obtained from non-linear regression of the competition curves using a multiple-curve, one-site homogeneous binding model (KINEXA software).
(§2) The association rate constant (kₒₙ) for sEGFR binding is also determined using a Sapidyne KINEXA assay. Two pM antibody is mixed with 20 pM sEGFR using the same conditions as described above. At various times, samples are probed for free antibody using the conditions described above for equilibrium binding, and then the resulting time dependence is fit using the KINEXA software to determine the association rate (kₒₙ). The dissociation rate constant (koff) is calculated using the expression koff=Kd×kₒₙ.

[3] = molecular target: T1, soluble EGFR (sEGFR), amino acids 1-619 …; assay: KinExA, full-length antibody with sEGFR in solution
Description: as §1, §2

[4] = molecular target: T1, soluble EGFR (sEGFR), amino acids 1-619 …; assay: KinExA, equilibrium, full-length antibody with sEGFR in solution
Description: as §1

[5] = molecular target: T1, soluble EGFR (sEGFR), amino acids 1-619 …; assay: capture ELISA: binder captured on goat anti-human kappa at varied concentration, biotinylated sEGFR (1/1000) detected with Neutravidin-AP, OD405
Description: Capture ELISA is used as an assay to detect Fabs which bind sEGFR as follows. […] The wells are washed 3 times with PBS-Tween 20 (0.05%). the wells are blocked with 50 μL/well 1% BSA in PBS-Tween for 1 hour at RT. The wells are washed 3 times with PBS-Tween. […] The plate is incubated at RT for 2 hours. The plate is wash 3 times with PBS-Tween. 50 μL/well biotinylated-sEGFR diluted 1/1000 in PBS-Tween are added and the plate is incubated at RT for 1 hour. The plate is washed 3 times with PBS-Tween. 50 μL/well Neutravidin-Alkaline Phosphatase (Neutravidin-AP; Pierce, Rockford, Ill.) diluted 1/1000 in PBS-Tween are added and incubated for 30 min. at RT. The plate is washed 3 times with PBS-Tween. 150 μL/well pNPP substrate (Sigma) is added and incubated at 37° C. until color develops.

Row | Binder | binding result [1] | koff [2] | kon [3] | Kd [4] | EC50 (read off the curve) [5]
1 | Fab 4.14 (Fab, V domains shown, Fab) VH: QVQLQESGPGLVKPSETLSLTCTVSGFSLTNWDVHWIRQPPGKGLEWIGNIWSGGNTDYNTPFTSRVTISVDTSKNQFSLKLSSVTAADTAVYYCARALDYYDYDYAYWGQGTMVTVSS VL: EIVLTQSPDFQSVTPKEKVTITCRASYSIGTNIHWYQQKPDQSPKLLIKYASESISGVPSRFSGSGSGTDFTLTINSLEAEDAATYYCQQNNDWPTTFGGGTKVEIK | binds |  |  |  | 
2 | Fab 2.II.3 (Fab, V domains shown, Fab; also called 2.11.3) VH: QVTLKESGPVLVKPTETLTLTCTVSGFSLSNWDVHWIRQPPGKALEWLAVIWSGGNTDYNTPFTSRLTISKDTSKSQVVLTMTNMDPVDTATYYCARALDYYDYDFAYWGQGTMVTVSS VL: EIVLTQSPDFQSVTPKEKVTITCRASYSIGTNIHWYQQKPDQSPKLLIKYASESISGVPSRFSGSGSGTDFTLTINSLEAEDAATYYCQQNNDWPTTFGGGTKVEIK | binds |  |  |  | 
3 | full-length monoclonal antibody VH2.87 (antibody, V domains shown, Full-length antibody with human Fc) VH: QVTLKESGPVLVKPTETLTLTCTVSGFSLSNWDVHWIRQPPGKALEWLAVIWSGGATDYNTPFNSRLTISKDTSKSQVVLTMTNMDPVDTATYYCARALDYYDYNFAYWGQGTMVTVSS VL: EIVLTQSPDFQSVTPKEKVTITCRASYSIGTNIHWYQQKPDQSPKLLIKYASESISGVPSRFSGSGSGTDFTLTINSLEAEDAATYYCQQNNNWPTTFGGGTKVEIK |  |  |  | 0.215 pM | 
4 | Fab 4.21 (Fab, V domains shown, Fab) VH: QVQLQESGPGLVKPSETLSLTCTVSGFSLTNWDVHWIRQPPGKGLEWIGVIWSGGNTDYNTPFTSRVTISVDTSKNQFSLKLSSVTAADTAVYYCARALDYYDYDFAYWGQGTMVTVSS VL: EIVLTQSPDFQSVTPKEKVTITCRASYSIGTNIHWYQQKPDQSPKLLIKYASESISGVPSRFSGSGSGTDFTLTINSLEAEDAATYYCQQNNDWPTSFGGGTKVEIK |  |  |  |  | ~0.02 µg/mL
5 | Fab 2.38 (Fab, V domains shown, Fab) VH: QVTLKESGPVLVKPTETLTLTCTVSGFSLSNWGVHWIRQPPGKALEWLAVIWSGGNTDYNTPFDSRLTISKDTSKSQVVLTMTNMDPVDTATYYCARALDYYDYDFAYWGQGTMVTVSS VL: EIVLTQSPDFQSVTPKEKVTITCRASYSIGTNIHWYQQKPDQSPKLLIKYASESISGVPSRFSGSGSGTDFTLTINSLEAEDAATYYCQQNNEWPTSFGGGTKVEIK | binds |  |  |  | 
6 | full-length monoclonal antibody VH2.69 (antibody, V domains shown, Full-length antibody with human Fc) VH: QVTLKESGPVLVKPTETLTLTCTVSGFSLSNWDVHWIRQPPGKALEWLAVIWSGGNTDYNTPFASRLTISKDTSKSQVVLTMTNMDPVDTATYYCARALDYYDYNFAYWGQGTMVTVSS VL: EIVLTQSPDFQSVTPKEKVTITCRASYSIGTNIHWYQQKPDQSPKLLIKYASESISGVPSRFSGSGSGTDFTLTINSLEAEDAATYYCQQNNNWPTSFGGGTKVEIK |  | 6.51e-06 s⁻¹ | 9.64e+06 M⁻¹ s⁻¹ | 0.68 pM | 

Second part, the binder after the results:

Row | binding result [1] | koff [2] | kon [3] | Kd [4] | EC50 (read off the curve) [5] | Binder
7 |  | 1.75e-07 s⁻¹ | 1.46e+07 M⁻¹ s⁻¹ | 0.012 pM |  | full-length monoclonal antibody VH4.15 (antibody, V domains shown, Full-length antibody with human Fc) VH: QVQLQESGPGLVKPSETLSLTCTVSGFSLTNYGVHWIRQPPGKGLEWIGNIWSGGNTDYNTPFTSRVTISVDTSKNQFSLKLSSVTAADTAVYYCARALDYYDYDYAYWGQGTMVTVSS VL: EIVLTQSPDFQSVTPKEKVTITCRASYSIGTNIHWYQQKPDQSPKLLIKYASESISGVPSRFSGSGSGTDFTLTINSLEAEDAATYYCQQNNEWPTSFGGGTKVEIK
8 |  | 2.02e-06 s⁻¹ | 1.07e+07 M⁻¹ s⁻¹ | 0.188 pM |  | full-length monoclonal antibody VH4.21 (antibody, V domains shown, Full-length antibody with human Fc) VH: QVQLQESGPGLVKPSETLSLTCTVSGFSLTNWDVHWIRQPPGKGLEWIGVIWSGGNTDYNTPFTSRVTISVDTSKNQFSLKLSSVTAADTAVYYCARALDYYDYDFAYWGQGTMVTVSS VL: EIVLTQSPDFQSVTPKEKVTITCRASYSIGTNIHWYQQKPDQSPKLLIKYASESISGVPSRFSGSGSGTDFTLTINSLEAEDAATYYCQQNNDWPTSFGGGTKVEIK
